Literature values in publication PMC3433420.
Like-named read-outs stand apart in the source and are kept apart here.

Assays:
Settings in all cases: cited from earlier work
SYK-NC (Homo sapiens) [1] = target: SYK-NC (Homo sapiens) (UniProt P43405)
SLA (Homo sapiens) [2] = target: SLA (Homo sapiens) (UniProt Q13239)
ABL2 (Homo sapiens) [3] = target: ABL2 (Homo sapiens) (UniProt P42684)
ABL2 (Homo sapiens) [4] = target: ABL2 (Homo sapiens) (UniProt P42684); remark: listed apart in the source
CRK (Homo sapiens) [5] = target: CRK (Homo sapiens) (UniProt P46108)
Chain of CRK (Homo sapiens) (P46108 8-123): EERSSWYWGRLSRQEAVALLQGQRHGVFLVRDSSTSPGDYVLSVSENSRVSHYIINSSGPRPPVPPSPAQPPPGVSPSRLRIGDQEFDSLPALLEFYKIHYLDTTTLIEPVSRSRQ

PLCG1-NC (Homo sapiens) [6] = target: PLCG1-NC (Homo sapiens) (UniProt P19174)
Chain of PLCG1-NC (Homo sapiens) (P19174 545-761): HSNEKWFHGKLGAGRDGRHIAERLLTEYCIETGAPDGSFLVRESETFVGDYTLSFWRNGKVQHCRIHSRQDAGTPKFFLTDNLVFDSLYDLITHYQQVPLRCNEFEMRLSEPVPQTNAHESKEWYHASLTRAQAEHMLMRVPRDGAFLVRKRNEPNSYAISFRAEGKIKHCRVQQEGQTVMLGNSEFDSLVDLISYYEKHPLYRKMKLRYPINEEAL

PIK3R3-NC (Homo sapiens) [7] = target: PIK3R3-NC (Homo sapiens) (UniProt Q92569)
VAV3 (Homo sapiens) = VAV3 (Homo sapiens) (UniProt Q9UKW4)
Chain of VAV3 (Homo sapiens) (Q9UKW4 667-771): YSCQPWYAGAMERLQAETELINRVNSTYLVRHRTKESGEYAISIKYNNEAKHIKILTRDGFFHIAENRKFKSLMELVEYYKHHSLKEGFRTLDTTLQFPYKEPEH

RASA1-N (Homo sapiens) [8] = target: RASA1-N (Homo sapiens) (UniProt P20936)
Chain of RASA1-N (Homo sapiens) (P20936 176-446): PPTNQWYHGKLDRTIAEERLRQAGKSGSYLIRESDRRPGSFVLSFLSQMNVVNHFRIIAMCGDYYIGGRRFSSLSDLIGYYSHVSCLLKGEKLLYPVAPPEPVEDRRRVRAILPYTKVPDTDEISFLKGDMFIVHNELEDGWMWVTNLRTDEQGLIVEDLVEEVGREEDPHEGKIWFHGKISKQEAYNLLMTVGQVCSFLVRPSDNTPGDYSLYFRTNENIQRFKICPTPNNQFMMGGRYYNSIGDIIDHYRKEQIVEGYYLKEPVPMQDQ

RASA1-N (Homo sapiens) [9] = target: RASA1-N (Homo sapiens) (UniProt P20936); remark: listed apart in the source
VAV1 (Homo sapiens) [10] = target: VAV1 (Homo sapiens) (UniProt P15498)
Chain of VAV1 (Homo sapiens) (P15498 666-770): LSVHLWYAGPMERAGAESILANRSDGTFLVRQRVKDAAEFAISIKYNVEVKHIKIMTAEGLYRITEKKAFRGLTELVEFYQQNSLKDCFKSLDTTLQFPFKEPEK

NCK2 (Homo sapiens) [11] = target: NCK2 (Homo sapiens) (UniProt O43639)
Chain of NCK2 (Homo sapiens) (O43639 280-380): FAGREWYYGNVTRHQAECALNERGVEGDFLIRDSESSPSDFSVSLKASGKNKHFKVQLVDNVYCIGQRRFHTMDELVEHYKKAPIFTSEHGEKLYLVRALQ

PTPN11-N (Homo sapiens) = PTPN11-N (Homo sapiens) (UniProt Q06124)
VAV2 (Homo sapiens) [12] = target: VAV2 (Homo sapiens) (UniProt P52735)
Chain of VAV2 (Homo sapiens) (P52735 668-772): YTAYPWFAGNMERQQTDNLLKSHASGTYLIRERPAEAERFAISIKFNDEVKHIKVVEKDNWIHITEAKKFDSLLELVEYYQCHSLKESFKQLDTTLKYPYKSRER

VAV2 (Homo sapiens) [13] = target: VAV2 (Homo sapiens) (UniProt P52735); remark: listed apart in the source
CRKL (Homo sapiens) [14] = target: CRKL (Homo sapiens) (UniProt P46109)
Chain of CRKL (Homo sapiens) (P46109 9-107): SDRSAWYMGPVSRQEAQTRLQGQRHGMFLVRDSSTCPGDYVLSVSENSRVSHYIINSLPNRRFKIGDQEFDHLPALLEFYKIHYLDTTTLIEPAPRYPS

PIK3R2-N (Homo sapiens) [15] = target: PIK3R2-N (Homo sapiens) (UniProt O00459)
Chain of PIK3R2-N (Homo sapiens) (O00459 325-721): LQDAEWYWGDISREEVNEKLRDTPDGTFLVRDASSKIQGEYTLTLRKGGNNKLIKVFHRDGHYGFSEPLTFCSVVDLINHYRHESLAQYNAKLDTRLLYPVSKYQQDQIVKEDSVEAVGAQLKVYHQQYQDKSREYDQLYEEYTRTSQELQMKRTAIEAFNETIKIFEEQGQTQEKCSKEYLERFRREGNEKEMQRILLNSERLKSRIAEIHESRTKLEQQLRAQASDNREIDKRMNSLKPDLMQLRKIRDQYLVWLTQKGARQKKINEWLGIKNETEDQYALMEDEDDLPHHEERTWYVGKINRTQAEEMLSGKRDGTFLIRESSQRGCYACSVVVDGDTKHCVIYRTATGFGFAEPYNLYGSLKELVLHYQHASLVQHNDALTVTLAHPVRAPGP

PLCG1-C (Homo sapiens) [16] = target: PLCG1-C (Homo sapiens) (UniProt P19174)
Chain of PLCG1-C (Homo sapiens) (P19174 545-761): as the sequence (P19174 545-761) above

SYK-NC (Homo sapiens) [17] = target: SYK-NC (Homo sapiens) (UniProt P43405); remark: listed apart in the source
GRB7 (Homo sapiens) = GRB7 (Homo sapiens) (UniProt Q14451)
Chain of GRB7 (Homo sapiens) (Q14451 426-532): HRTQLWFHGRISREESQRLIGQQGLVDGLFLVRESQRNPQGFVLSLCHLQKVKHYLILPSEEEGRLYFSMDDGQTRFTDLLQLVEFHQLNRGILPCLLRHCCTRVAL

PIK3R1-N (Homo sapiens) = PIK3R1-N (Homo sapiens) (UniProt P27986)
Chain of PIK3R1-N (Homo sapiens) (P27986 328-723): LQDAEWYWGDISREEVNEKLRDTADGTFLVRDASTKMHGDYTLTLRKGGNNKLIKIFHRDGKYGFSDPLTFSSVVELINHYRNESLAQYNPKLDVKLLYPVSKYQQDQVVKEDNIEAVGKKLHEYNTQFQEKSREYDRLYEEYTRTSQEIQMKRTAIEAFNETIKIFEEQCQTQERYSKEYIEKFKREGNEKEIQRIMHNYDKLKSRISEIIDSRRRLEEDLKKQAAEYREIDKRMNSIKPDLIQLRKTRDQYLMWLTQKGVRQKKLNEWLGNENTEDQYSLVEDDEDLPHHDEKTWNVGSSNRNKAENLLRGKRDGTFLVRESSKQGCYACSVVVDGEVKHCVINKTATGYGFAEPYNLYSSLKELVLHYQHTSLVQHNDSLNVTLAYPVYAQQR

SLA (Homo sapiens) [18] = target: SLA (Homo sapiens) (UniProt Q13239); remark: listed apart in the source
BLK (Homo sapiens) = BLK (Homo sapiens) (UniProt P51451)
Chain of BLK (Homo sapiens) (P51451 119-225): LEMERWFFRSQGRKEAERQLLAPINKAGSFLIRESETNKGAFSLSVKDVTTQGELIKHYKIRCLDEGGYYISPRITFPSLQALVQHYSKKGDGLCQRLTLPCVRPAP

ITK (Homo sapiens) = ITK (Homo sapiens) (UniProt Q08881)
Chain of ITK (Homo sapiens) (Q08881 234-343): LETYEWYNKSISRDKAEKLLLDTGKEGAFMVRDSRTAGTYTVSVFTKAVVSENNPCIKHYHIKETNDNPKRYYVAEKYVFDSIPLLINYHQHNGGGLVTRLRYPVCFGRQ

ABL2 (Homo sapiens) [19] = target: ABL2 (Homo sapiens) (UniProt P42684); remark: listed apart in the source
CRK (Homo sapiens) [20] = target: CRK (Homo sapiens) (UniProt P46108); remark: listed apart in the source
PLCG1-NC (Homo sapiens) [21] = target: PLCG1-NC (Homo sapiens) (UniProt P19174); remark: listed apart in the source
PTPN11-NC (Homo sapiens) = PTPN11-NC (Homo sapiens) (UniProt Q06124)
PLCG2-NC (Homo sapiens) = PLCG2-NC (Homo sapiens) (UniProt P16885)
Chain of PLCG2-NC (Homo sapiens) (P16885 527-740): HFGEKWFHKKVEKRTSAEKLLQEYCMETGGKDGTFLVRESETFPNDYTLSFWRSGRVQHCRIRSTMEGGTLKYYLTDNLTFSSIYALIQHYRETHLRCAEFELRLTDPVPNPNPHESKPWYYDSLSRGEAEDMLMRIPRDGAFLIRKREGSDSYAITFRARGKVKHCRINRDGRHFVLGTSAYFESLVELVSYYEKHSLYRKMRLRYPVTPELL

PIK3R3-NC (Homo sapiens) [22] = target: PIK3R3-NC (Homo sapiens) (UniProt Q92569); remark: listed apart in the source
LYN (Homo sapiens) = LYN (Homo sapiens) (UniProt P07948)
Chain of LYN (Homo sapiens) (P07948 124-231): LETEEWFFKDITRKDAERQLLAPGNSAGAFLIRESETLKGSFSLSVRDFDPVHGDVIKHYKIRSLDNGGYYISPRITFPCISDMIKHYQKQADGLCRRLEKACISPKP

FGR (Homo sapiens) = FGR (Homo sapiens) (UniProt P09769)
RASA1-N (Homo sapiens) [23] = target: RASA1-N (Homo sapiens) (UniProt P20936); remark: listed apart in the source
TENC1 (Homo sapiens) = TENC1 (Homo sapiens) (UniProt Q63HR2)
Chain of TENC1 (Homo sapiens) (Q63HR2 1135-1252): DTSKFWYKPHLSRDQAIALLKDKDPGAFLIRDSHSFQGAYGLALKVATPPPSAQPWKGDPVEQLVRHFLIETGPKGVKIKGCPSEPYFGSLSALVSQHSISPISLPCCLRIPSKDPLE

VAV1 (Homo sapiens) [24] = target: VAV1 (Homo sapiens) (UniProt P15498); remark: listed apart in the source
SH2D2A (Homo sapiens) = SH2D2A (Homo sapiens) (UniProt Q9NP31)
Chain of SH2D2A (Homo sapiens) (Q9NP31 90-191): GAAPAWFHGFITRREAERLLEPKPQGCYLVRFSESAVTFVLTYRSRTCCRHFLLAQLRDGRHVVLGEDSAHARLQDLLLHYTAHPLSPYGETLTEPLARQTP

GRB2 (Homo sapiens) = GRB2 (Homo sapiens) (UniProt P62993)
PIK3R1-NC (Homo sapiens) = PIK3R1-NC (Homo sapiens) (UniProt P27986)
Chain of PIK3R1-NC (Homo sapiens) (P27986 328-723): as the sequence (P27986 328-723) above

ABL1 (Homo sapiens) = ABL1 (Homo sapiens) (UniProt P00519)
SH3BP2 (Homo sapiens) = SH3BP2 (Homo sapiens) (UniProt P78314)
Chain of SH3BP2 (Homo sapiens) (P78314 452-560): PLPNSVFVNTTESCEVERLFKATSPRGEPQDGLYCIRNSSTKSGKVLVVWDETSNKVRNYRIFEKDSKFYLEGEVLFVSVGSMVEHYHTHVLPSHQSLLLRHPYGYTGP

NCK2 (Homo sapiens) [25] = target: NCK2 (Homo sapiens) (UniProt O43639); remark: listed apart in the source
PIK3R3-N (Homo sapiens) = PIK3R3-N (Homo sapiens) (UniProt Q92569)
TNS3 (Homo sapiens) = TNS3 (Homo sapiens) (UniProt Q68CZ2)
Chain of TNS3 (Homo sapiens) (Q68CZ2 1167-1287): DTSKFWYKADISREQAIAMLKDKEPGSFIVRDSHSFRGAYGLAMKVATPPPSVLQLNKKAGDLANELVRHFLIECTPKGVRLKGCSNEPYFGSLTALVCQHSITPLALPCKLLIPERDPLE

SRC (Homo sapiens) = SRC (Homo sapiens) (UniProt P12931)
PIK3R2-NC (Homo sapiens) = PIK3R2-NC (Homo sapiens) (UniProt O00459)
BCAR3 (Homo sapiens) = BCAR3 (Homo sapiens) (UniProt O75815)
Chain of BCAR3 (Homo sapiens) (O75815 149-258): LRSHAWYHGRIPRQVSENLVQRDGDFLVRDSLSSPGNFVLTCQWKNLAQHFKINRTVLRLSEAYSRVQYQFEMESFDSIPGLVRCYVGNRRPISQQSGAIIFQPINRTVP

VAV2 (Homo sapiens) [26] = target: VAV2 (Homo sapiens) (UniProt P52735); remark: listed apart in the source
BMX (Homo sapiens) = BMX (Homo sapiens) (UniProt P51813)
CRKL (Homo sapiens) [27] = target: CRKL (Homo sapiens) (UniProt P46109); remark: listed apart in the source
GRAP2 (Homo sapiens) = GRAP2 (Homo sapiens) (UniProt O75791)
Chain of GRAP2 (Homo sapiens) (O75791 53-154): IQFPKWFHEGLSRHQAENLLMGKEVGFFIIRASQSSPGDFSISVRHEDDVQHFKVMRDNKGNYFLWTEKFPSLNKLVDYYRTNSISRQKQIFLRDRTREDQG

HCK (Homo sapiens) = HCK (Homo sapiens) (UniProt P08631)
Chain of HCK (Homo sapiens) (P08631 139-246): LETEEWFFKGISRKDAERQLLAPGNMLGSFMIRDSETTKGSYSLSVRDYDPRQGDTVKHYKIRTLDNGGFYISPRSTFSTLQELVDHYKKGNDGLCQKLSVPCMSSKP

PIK3R2-N (Homo sapiens) [28] = target: PIK3R2-N (Homo sapiens) (UniProt O00459); remark: listed apart in the source
PIK3R3-C (Homo sapiens) = PIK3R3-C (Homo sapiens) (UniProt Q92569)
PLCG1-C (Homo sapiens) [29] = target: PLCG1-C (Homo sapiens) (UniProt P19174); remark: listed apart in the source

Chain of ABL2 (Homo sapiens) (P42684 168-268): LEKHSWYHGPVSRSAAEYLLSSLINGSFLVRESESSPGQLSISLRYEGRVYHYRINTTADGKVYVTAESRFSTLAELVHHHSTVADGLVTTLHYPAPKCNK
Chain of SLA (Homo sapiens) (Q13239 79-180): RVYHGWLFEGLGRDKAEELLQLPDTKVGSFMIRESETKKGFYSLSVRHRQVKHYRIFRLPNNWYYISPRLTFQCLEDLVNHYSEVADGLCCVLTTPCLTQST

## …pYLNPVEENd
SYK-NC (Homo sapiens) [1]
  apparent Kd (screen): 2000 nM
SLA (Homo sapiens) [2]
  apparent Kd (screen): 2000 nM
ABL2 (Homo sapiens) [3]
  apparent Kd (screen): 283 nM
ABL2 (Homo sapiens) [4]
  apparent Kd (screen): 316 nM
CRK (Homo sapiens) [5]
  apparent Kd (screen): 2000 nM
PLCG1-NC (Homo sapiens) [6]
  apparent Kd (screen): 2000 nM
PIK3R3-NC (Homo sapiens) [7]
  apparent Kd (screen): 2000 nM
VAV3 (Homo sapiens)
  apparent Kd (screen): 2000 nM
RASA1-N (Homo sapiens) [8]
  apparent Kd (screen): 983 nM
RASA1-N (Homo sapiens) [9]
  apparent Kd (screen): 2000 nM
VAV1 (Homo sapiens) [10]
  apparent Kd (screen): 2000 nM
NCK2 (Homo sapiens) [11]
  apparent Kd (screen): 2000 nM
PTPN11-N (Homo sapiens)
  apparent Kd (screen): 2000 nM
VAV2 (Homo sapiens) [12]
  apparent Kd (screen): 100 nM
VAV2 (Homo sapiens) [13]
  apparent Kd (screen): 2000 nM
CRKL (Homo sapiens) [14]
  apparent Kd (screen): 2000 nM
PIK3R2-N (Homo sapiens) [15]
  apparent Kd (screen): 2000 nM
PLCG1-C (Homo sapiens) [16]
  apparent Kd (screen): 2000 nM

## …pYVNQPDVR
SYK-NC (Homo sapiens) [17]
  apparent Kd (screen): 973 nM
GRB7 (Homo sapiens)
  apparent Kd (screen): 2000 nM
PIK3R1-N (Homo sapiens)
  apparent Kd (screen): 508 nM
SLA (Homo sapiens) [18]
  apparent Kd (screen): 2000 nM
BLK (Homo sapiens)
  apparent Kd (screen): 2000 nM
ITK (Homo sapiens)
  apparent Kd (screen): 1510 nM
ABL2 (Homo sapiens) [19]
  apparent Kd (screen): 71 nM
CRK (Homo sapiens) [20]
  apparent Kd (screen): 2000 nM
PLCG1-NC (Homo sapiens) [21]
  apparent Kd (screen): 2000 nM
PTPN11-NC (Homo sapiens)
  apparent Kd (screen): 877 nM
PLCG2-NC (Homo sapiens)
  apparent Kd (screen): 1280 nM
PIK3R3-NC (Homo sapiens) [22]
  apparent Kd (screen): 304 nM
LYN (Homo sapiens)
  apparent Kd (screen): 2000 nM
FGR (Homo sapiens)
  apparent Kd (screen): 454 nM
RASA1-N (Homo sapiens) [23]
  apparent Kd (screen): 675 nM
TENC1 (Homo sapiens)
  apparent Kd (screen): 565 nM
VAV1 (Homo sapiens) [24]
  apparent Kd (screen): 206 nM
SH2D2A (Homo sapiens)
  apparent Kd (screen): 980 nM
GRB2 (Homo sapiens)
  apparent Kd (screen): 76 nM
PIK3R1-NC (Homo sapiens)
  apparent Kd (screen): 741 nM
ABL1 (Homo sapiens)
  apparent Kd (screen): 157 nM
SH3BP2 (Homo sapiens)
  apparent Kd (screen): 406 nM
NCK2 (Homo sapiens) [25]
  apparent Kd (screen): 777 nM
PIK3R3-N (Homo sapiens)
  apparent Kd (screen): 395 nM
TNS3 (Homo sapiens)
  apparent Kd (screen): 765 nM
SRC (Homo sapiens)
  apparent Kd (screen): 2000 nM
PIK3R2-NC (Homo sapiens)
  apparent Kd (screen): 776 nM
BCAR3 (Homo sapiens)
  apparent Kd (screen): 1000 nM
VAV2 (Homo sapiens) [26]
  apparent Kd (screen): 226 nM
BMX (Homo sapiens)
  apparent Kd (screen): 520 nM
CRKL (Homo sapiens) [27]
  apparent Kd (screen): 2000 nM
GRAP2 (Homo sapiens)
  apparent Kd (screen): 958 nM
HCK (Homo sapiens)
  apparent Kd (screen): 2000 nM
PIK3R2-N (Homo sapiens) [28]
  apparent Kd (screen): 281 nM
PIK3R3-C (Homo sapiens)
  apparent Kd (screen): 1220 nM
PLCG1-C (Homo sapiens) [29]
  apparent Kd (screen): 1930 nM
